# Reference: patent US12123009B2, “Methods and compositions for PPO herbicide tolerance in plants” (Monsanto Technology LLC, priority 2015, dated 2024)
# B1: Waterhemp: herbicide-sensitive wild-type protoporphyrinogen oxidase from Amaranthus tuberculatus (waterhemp), SEQ ID NO:21; plastid extract in Table 3 (protein, listed as Amaranthus tuberculatus)
# chain: MGNISEREEPTSAKRVAVVGAGVSGLAAAYKLKSHGLSVTLFEADSRAGGKLKTVKKDGFIWDEGANTMTESEAEVSSLIDDLGLREKQQLPISQNKRYIARDGLPVLLPSNPAALLTSNILSAKSKLQIMLEPFLWRKHNATELSDEHVQESVGEFFERHFGKEFVDYVIDPFVAGTCGGDPQSLSMHHTFPEVWNIEKRFGSVFAGLIQSTLLSKKEKGGENASIKKPRVRGSFSFQGGMQTLVDTMCKQLGEDELKLQCEVLSLSYNQKGIPSLGNWSVSSMSNNTSEDQSYDAVVVTAPIRNVKEMKIMKFGNPFSLDFIPEVTYVPLSVMITAFKKDKVKRPLEGFGVLIPSKEQHNGLKTLGTLFSSMMFPDRAPSDMCLFTTFVGGSRNRKLANASTDELKQIVSSDLQQLLGTEDEPSFVNHLFWSNAFPLYGHNYDSVLRAIDKMEKDLPGFFYAGNHKGGLSVGKAMASGCKAAELVISYLDSHIYVKMDEKTA
# B2: H_N10: E. coli wild-type HemG protoporphyrinogen oxidase, SEQ ID NO:4 (SEQ ID NO:13 lacking start methionine) (protein, listed as Escherichia coli)
# chain: MKTLILFSTRDGQTREIASYLASELKELGIQADVANVHRIEEPQWENYDRVVIGASIRYGHYHSAFQEFVKKHATRLNSMPSAFYSVNLVARKPEKRTPQTNSYARKFLMNSQWRPDRCAVIAGALRYPRYRWYDRFMIKLIMKMSGGETDTRKEVVYTDWEQVANFAREIAHLTDKPTLK
# Key:
# [1] = system: hemG knockout E. coli strain; assay type: cell-based; details: LB medium plates (heme-free)
# [2] = system: hemG knockout E. coli strain; assay type: cell-based; details: LB liquid medium, acifluorfen (1 mM), flumioxazin (0.5 mM), lactofen (0.5 mM), fomesafen (1 mM), S-3100 (100 uM)
# transgenic maize plants [3] = experiment: R0 transgenic maize 40 g/ha S-3100 spray test; assay type: in vivo
# Excerpt: H_N60 (SEQ ID NO:3). […] These five constructs had the same promoter plus leader plus intron combination, with two different targeting peptide (TP) sequences, and the same 3′UTR sequence. Leaf samples were taken from the R0 plants and analyzed by PCR to determine the transgene copy number. Single copy plants for up to 12 unique events per construct were transplanted to pots, selfed and outcrossed to generate R1 and F1 seed, respectively, for future testing. Multi-copy plants and extra single copy plants were sprayed with 40 grams/ha 5-3100 at approximately the V5 growth stage and injury ratings were taken 7 days after treatment. The average percent (%) injury for all plants expressing each PPO enzyme and the number of plants that were deemed highly tolerant (less than 10% injury) was noted, where each plant is a unique single or multi-copy transformant.
# soybean plantlets = experiment: High-throughput soybean screening for herbicide tolerance (plantlets); assay type: in vivo, soybean (A3555); set-up: key: 0 for poor tolerance, high damage, low green coloration; 1 for some tolerance, average damage, moderate green coloration; 2 for good tolerance, low damage, high green coloration; details: S-3100 spray five weeks post-transformation, scored day four
# Excerpt: A high-throughput plant transformation and screening method was used to evaluate large numbers of constructs in transgenic plants for herbicide tolerance in early transformation plantlet tissue. This allowed for faster and higher volume screening of construct configurations and PPO enzymes.
# This permitted the side-by-side comparison of seven different HemG PPO enzymes with thirty-seven different targeting peptides using the same promoter and 3′UTR elements for gene expression. These plant transformation constructs were used to transform soybean excised embryos (germplasm A3555) using A. tumefaciens and standard methods known in the art. Four hundred explants were inoculated for each construct resulting in twelve containers per construct. A sterile PPO herbicide solution was used for herbicide tolerance testing. The herbicide solution consisted of 0.3 g of S-3100 in crop oil concentrate (5.0 mL) and 495 mL of deionized water. This was filtered through a 0.45 micron Nalgene® Rapid-Flow™ Tissue Culture Filter Unit and Surfactant-Free Cellulose Acetate membrane filter unit (VWR, Radnor, PA, USA). The resulting sterile solution was shaken before application.
# At five weeks post-transformation, four of the twelve plant containers per construct were sprayed with two passes of the sterile PPO herbicide solution. The treated plantlets were then enclosed in the container and received at least 15 hours of light exposure post spray each day for four days. At the end of day four post application of S-3100, the treated plantlets were photographed and scored on a visual scale of green coloration (green coloration was representative of healthy photosynthetic plant tissue as compared to photo-bleached tissue) versus damage. The scoring values were 0 for poor tolerance, high damage, low green coloration; 1 for some tolerance, average damage, moderate green coloration; and 2 for good tolerance, low damage, high green coloration. The scoring for each construct is presented in Table 9, where n.d. indicates the analysis was not conducted.
# transgenic maize plants [4] = experiment: R0 multi-copy transgenic maize S-3100 spray test; assay type: in vivo, maize (LH244)
# Excerpt: For maize in planta testing, immature maize (LH244) embryos were transformed with using Agrobacterium tumefaciens and standard methods known in the art. […] Leaf samples were collected from R0 plants and screened by PCR to determine the number of copies of the transgene inserted into the plant genome. […] Plants containing multiple copies (multi-copy) were sprayed as follows: […]
# F1 maize = experiment: Efficacy field trial of F1 maize; assay type: in vivo; details: F1 transgenic maize greenhouse and field data
# Procedure: This F1 population was segregating (50% hemizygous and 50% null) and selection for transgenic plants was not conducted prior to injury ratings. The overall average injury ratings for such a population are expected to be higher than a homogenous transgenic population since it is difficult to discern non-transgenic plants from transgenic plants. The trials were conducted at two locations with two replicates and 3 treatments per construct. Non-transgenic maize plants were used as a negative control. The herbicide application treatments were as follows: Treatment 1 was 0.036 lb ai/acre S-3100 applied at V2 followed by (fb) V4 fb V8; Treatment 2: was 0.072 lb ai/acre S-3100 applied at V2 fb V4 fb V8; Treatment 3: was 0.144 lb ai/acre S-3100 applied at V2 fb V4 fb V8. Crop Injury Percent ratings were assessed at the V2 growth stage (CIPV2) and at the V4 growth stage (CIPV4) at 5 to 7 days after treatment (the error V2 and error V4 are half of the least significant difference (LSD)). The crop injury ratings were combined for both locations.
# [5] = 40 grams/ha S-3100 at V5, 7 days after treatment, R0 plants
molecule,measurement,setting,value
B1,restore growth of the transformed hemG knockout E. coli strain (PPO activity),[1],able to restore growth
same,growth of hemG knockout E. coli strain in the presence of a PPO herbicide,[2],sensitive
B2,Average Injury,transgenic maize plants [3]; [5],39.5%
same,Highly Tolerant (number of plants with less than 10% injury),transgenic maize plants [3]; [5],31
same,injury rates when expressed in transgenic plants (crop tolerance to a PPO herbicide),transgenic maize plants [3]; R0 transgenic maize data,reduced injury rates
same,coloration score,soybean plantlets; TP9,1
same,coloration score,soybean plantlets; TP12,1
same,coloration score,soybean plantlets; TP13,1
same,coloration score,soybean plantlets; TP14,0
same,coloration score,soybean plantlets; TP16,1
same,coloration score,soybean plantlets; TP18,1
same,coloration score,soybean plantlets; TP19,0
same,coloration score,soybean plantlets; TP20,0
same,coloration score,soybean plantlets; TP21,0
same,coloration score,soybean plantlets; TP22,1
same,coloration score,soybean plantlets; TP23,1
same,coloration score,soybean plantlets; TP24,0
same,coloration score,soybean plantlets; TP26,0
same,coloration score,soybean plantlets; TP27,1
same,coloration score,soybean plantlets; TP31,1
same,coloration score,soybean plantlets; TP33,1
same,coloration score,soybean plantlets; TP36,0
same,Average Injury,"transgenic maize plants [4]; Treatment 1: 5 g/ha S-3100 at V5 followed by 10 g/ha at V7, total 15 g/ha, 7 days after final treatment, H_N10 in construct 6",28.9%
same,Average Injury,"transgenic maize plants [4]; Treatment 2: 10 g/ha S-3100 at V5, 7 days after treatment, H_N10 in construct 16",24.2%
same,injury rates when expressed in transgenic plants (crop tolerance to a PPO herbicide),F1 maize,reduced injury rates
